Read-outs that look alike come from different tables or passages of the source.
Experiments:
[1] = molecular target: T1, GDF11 (UniProt O95390 299-407); assay: Biacore SPR; † very low signal
T1 construct: also called BMP11
T1 sequence (looked up): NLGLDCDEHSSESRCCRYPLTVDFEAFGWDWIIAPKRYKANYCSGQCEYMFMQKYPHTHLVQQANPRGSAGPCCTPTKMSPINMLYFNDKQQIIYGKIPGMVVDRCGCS
Procedure: (§1) Ligands were injected and allowed to flow over the captured receptor protein.

[2] = molecular target: T2, activin B (UniProt P09529 293-407); assay: Biacore SPR
T2 sequence (looked up): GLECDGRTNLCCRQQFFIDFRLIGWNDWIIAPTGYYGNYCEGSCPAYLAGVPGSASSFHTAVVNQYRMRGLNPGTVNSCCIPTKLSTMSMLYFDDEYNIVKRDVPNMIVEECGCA
Procedure: as §1

[3] = molecular target: T1, GDF11; assay: Biacore SPR
Procedure: as §1

[4] = molecular target: T3, activin A (UniProt P08476 311-426); assay: Biacore SPR
T3 sequence (looked up): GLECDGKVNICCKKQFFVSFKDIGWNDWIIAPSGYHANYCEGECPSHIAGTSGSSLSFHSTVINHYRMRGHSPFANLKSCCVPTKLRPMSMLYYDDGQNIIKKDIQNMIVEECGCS
Procedure: as §1

[5] = molecular target: T1, GDF11; assay: Biacore SPR; remark: listed apart in the source
Procedure: as §1

[6] = molecular target: T4, BMP6 (UniProt P22004 382-513, limits assumed); assay: Biacore SPR
T4 sequence (looked up): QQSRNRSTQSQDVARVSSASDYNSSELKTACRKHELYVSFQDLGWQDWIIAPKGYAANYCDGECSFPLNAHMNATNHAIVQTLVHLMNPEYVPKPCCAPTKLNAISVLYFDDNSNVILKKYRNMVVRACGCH
Procedure: as §1

[7] = molecular target: T3, activin A; assay: Biacore SPR; remark: listed apart in the source
Procedure: as §1

[8] = molecular target: T5, BMP10 (UniProt O95393 317-424); assay: Biacore SPR
T5 sequence (looked up): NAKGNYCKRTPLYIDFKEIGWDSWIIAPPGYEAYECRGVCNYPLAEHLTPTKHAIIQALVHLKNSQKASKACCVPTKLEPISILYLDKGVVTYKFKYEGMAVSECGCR
Procedure: as §1

[9] = molecular target: T6, activin AC (UniProt P08476 311-426; P55103 237-352); assay: Biacore SPR
T6 sequence (looked up) 1: T3 sequence (looked up)
T6 sequence (looked up) 2: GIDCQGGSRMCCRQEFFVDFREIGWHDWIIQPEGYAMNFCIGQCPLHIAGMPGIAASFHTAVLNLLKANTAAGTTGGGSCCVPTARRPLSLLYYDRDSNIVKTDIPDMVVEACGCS
Procedure: as §1

[10] = molecular target: T7, BMP7 (UniProt P18075 293-431); assay: Biacore SPR
T7 sequence (looked up): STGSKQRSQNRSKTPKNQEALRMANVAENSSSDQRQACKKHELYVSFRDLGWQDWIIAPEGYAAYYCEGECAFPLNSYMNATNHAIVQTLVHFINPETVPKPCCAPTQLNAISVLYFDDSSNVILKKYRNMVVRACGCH
Procedure: as §1

[11] = molecular target: T8, activin AB (UniProt P08476 311-426; P09529 293-407); assay: Biacore SPR
T8 sequence (looked up) 1: T3 sequence (looked up)
T8 sequence (looked up) 2: T2 sequence (looked up)
Procedure: as §1

[12] = molecular target: T9, BMP9 (UniProt Q9UK05 320-429); assay: Biacore SPR
T9 construct: also called GDF2
T9 sequence (looked up): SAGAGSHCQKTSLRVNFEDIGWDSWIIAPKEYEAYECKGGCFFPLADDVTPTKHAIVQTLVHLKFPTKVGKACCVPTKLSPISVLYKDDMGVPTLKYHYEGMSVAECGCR
Procedure: as §1

[13] = molecular target: T10, BMP15 (UniProt O95972 268-392); assay: Biacore SPR
T10 construct: also called GDF9b
T10 sequence (looked up): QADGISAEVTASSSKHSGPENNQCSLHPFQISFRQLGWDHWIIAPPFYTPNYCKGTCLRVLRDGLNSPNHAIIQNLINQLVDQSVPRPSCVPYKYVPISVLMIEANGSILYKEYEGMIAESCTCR
Procedure: as §1

[14] = molecular target: T3, activin A; assay: Biacore SPR; remark: listed apart in the source
Procedure: as §1

[15] = molecular target: T8, activin AB; assay: Biacore SPR; remark: listed apart in the source
Procedure: as §1

[16] = molecular target: T1, GDF11; assay: Biacore SPR; † very low signal; remark: listed apart in the source
Procedure: as §1

[17] = molecular target: T9, BMP9; assay: Biacore SPR; remark: listed apart in the source
Procedure: as §1

[18] = molecular target: T11, BMP4 (UniProt P12644 293-408); assay: Biacore SPR
T11 sequence (looked up): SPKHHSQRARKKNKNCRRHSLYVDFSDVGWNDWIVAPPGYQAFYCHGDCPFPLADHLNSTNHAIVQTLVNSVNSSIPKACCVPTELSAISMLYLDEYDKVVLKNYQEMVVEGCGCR
Procedure: as §1

[19] = molecular target: T4, BMP6; assay: Biacore SPR; remark: listed apart in the source
Procedure: as §1

[20] = molecular target: T10, BMP15; assay: Biacore SPR; remark: listed apart in the source
Procedure: as §1

[21] = molecular target: T12, BMP5 (UniProt P22003 317-454, limits assumed); assay: Biacore SPR
T12 sequence (looked up): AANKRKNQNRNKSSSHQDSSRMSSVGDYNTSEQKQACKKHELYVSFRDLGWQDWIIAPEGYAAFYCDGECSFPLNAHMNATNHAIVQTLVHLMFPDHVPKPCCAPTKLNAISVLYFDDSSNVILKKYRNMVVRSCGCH
Procedure: as §1

[22] = molecular target: T5, BMP10; assay: Biacore SPR; remark: listed apart in the source
Procedure: as §1

[23] = molecular target: T7, BMP7; assay: Biacore SPR; remark: listed apart in the source
Procedure: as §1

[24] = molecular target: T13, GDF6 (UniProt Q6KF10 336-455, limits assumed); assay: Biacore SPR
T13 construct: also called BMP13
T13 sequence (looked up): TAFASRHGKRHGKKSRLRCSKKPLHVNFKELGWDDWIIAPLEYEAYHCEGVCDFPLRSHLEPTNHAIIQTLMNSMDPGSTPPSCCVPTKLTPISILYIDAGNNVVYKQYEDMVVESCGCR
Procedure: as §1

[25] = molecular target: BMP2 (UniProt P12643 283-396); assay: Biacore SPR
Sequence of BMP2 (P12643 283-396 limits assumed): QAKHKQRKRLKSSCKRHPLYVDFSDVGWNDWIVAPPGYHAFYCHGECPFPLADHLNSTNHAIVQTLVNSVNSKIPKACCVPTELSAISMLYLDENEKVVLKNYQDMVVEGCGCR
Procedure: as §1

[26] = molecular target: T4, BMP6; assay: Biacore SPR; remark: listed apart in the source

B1: ALK4-Fc homodimer (Fc fusion, UniProt P36896 24-126, looked up, not shown: a dimerising Fc or GST)
chain: SGPRGVQALLCACTSCLQANYTCETDGACMVSIFNLDGMEHHVRTCIPKVELVPAGKPFYCLSSEDLRNTHCCYTDYCNRIDLRVPSGHLKEPEHPSMWGPVE
notes: extracellular domain
Q: With B1 as the binder, how does the Kd [1] read?
A: 0.97 nM

Q: Does B1 bind [2]?
A: no binding

Q: And the koff [3]?
A: 0.0048 s⁻¹

Q: And the kon [3]?
A: 5e+06 M⁻¹ s⁻¹

Q: What about the Kd [4] of the same binder?
A: 20 nM

Q: What about the koff [4] of the same binder?
A: 0.012 s⁻¹

Q: And the kon [4]?
A: 580000 M⁻¹ s⁻¹

Q: And the koff [5]?
A: 0.0048 s⁻¹

Q: What about the kon [5] of the same binder?
A: 5e+06 M⁻¹ s⁻¹

Q: Does B1 bind [6]?
A: no binding

Q: What about the Kd [7] of the same binder?
A: 20 nM

Q: What about the koff [7] of the same binder?
A: 0.012 s⁻¹

Q: What about the kon [7] of the same binder?
A: 580000 M⁻¹ s⁻¹

Q: Does B1 bind [8]?
A: no binding

Q: Does B1 bind [9]?
A: no binding

Q: Does B1 bind [10]?
A: no binding

Q: What about the Kd [11] of the same binder?
A: 2 nM

Q: What about the koff [11] of the same binder?
A: 0.0036 s⁻¹

Q: And the kon [11]?
A: 1.8e+06 M⁻¹ s⁻¹

Q: Does B1 bind [12]?
A: no binding

Q: Does B1 bind [13]?
A: no binding

Q: What about the Kd [14] of the same binder?
A: 20 nM

Q: And the koff [14]?
A: 0.012 s⁻¹

Q: And the kon [14]?
A: 580000 M⁻¹ s⁻¹

Q: What about the Kd [15] of the same binder?
A: 1.5 nM

Q: And the koff [15]?
A: 0.0064 s⁻¹

Q: And the kon [15]?
A: 4.4e+06 M⁻¹ s⁻¹

Q: What about the Kd [16] of the same binder?
A: 0.97 nM

B2: BMPRII-Fc:ALK3-Fc heterodimer (Fc fusion)
chain 1: SQNQERLCAFKDPYQQDLGIGESRISHENGTILCSKGSTCYGLWEKSKGDINLVKQGCWSHIGDPQECHYEECVVTTTPPSIQNGTYRFCCCSTDLCNVNFTENFPPPDTTPLSPPHSFNRDETGGGTHTCPPCPAPELLGGPSVFLFPPKPKDTLMISRTPEVTCVVVDVSHEDPEVKFNWYVDGVEVHNAKTKPREEQYNSTYRVVSVLTVLHQDWLNGKEYKCKVSNKALPAPIEKTISKAKGQPREPQVYTLPPSRKEMTKNQVSLTCLVKGFYPSDIAVEWESNGQPENNYKTTPPVLKSDGSFFLYSKLTVDKSRWQQGNVFSCSVMHEALHNHYTQKSLSLSPGK
chain 2: GAQNLDSMLHGTGMKSDSDQKKSENGVTLAPEDTLPFLKCYCSGHCPDDAINNTCITNGHCFAIIEEDDQGETTLASGCMKYEGSDFQCKDSPKAQLRRTIECCRTNLCNQYLQPTLPPVVIGPFFDGSIRTGGGTHTCPPCPAPELLGGPSVFLFPPKPKDTLMISRTPEVTCVVVDVSHEDPEVKFNWYVDGVEVHNAKTKPREEQYNSTYRVVSVLTVLHQDWLNGKEYKCKVSNKALPAPIEKTISKAKGQPREPQVYTLPPSREEMTKNQVSLTCLVKGFYPSDIAVEWESNGQPENNYDTTPPVLDSDGSFFLYSDLTVDKSRWQQGNVFSCSVMHEALHNHYTQKSLSLSPG
notes: C-terminal Lys optional; also called BMPRII-Fc:ALK3 heterodimer
Q: Which results are given for B2?
A: binding result [17]: no binding; Kd [18]: 0.1 nM; koff [18]: 9.1e-05 s⁻¹; kon [18]: 910000 M⁻¹ s⁻¹; Kd [19]: 1.6 nM; koff [19]: 0.00059 s⁻¹; kon [19]: 360000 M⁻¹ s⁻¹; Kd [20]: 6 nM; koff [20]: 0.0055 s⁻¹; kon [20]: 910000 M⁻¹ s⁻¹; Kd [21]: 3.2 nM; koff [21]: 0.0014 s⁻¹; kon [21]: 430000 M⁻¹ s⁻¹; Kd [22]: 2.4 nM; koff [22]: 0.0016 s⁻¹; kon [22]: 680000 M⁻¹ s⁻¹; Kd [23]: 1 nM; koff [23]: 0.012 s⁻¹; kon [23]: 1.2e+07 M⁻¹ s⁻¹; Kd [24]: 1.4 nM; koff [24]: 0.0019 s⁻¹; kon [24]: 1.4e+06 M⁻¹ s⁻¹; Kd [25]: 0.051 nM; koff [25]: 0.00015 s⁻¹; kon [25]: 2.9e+06 M⁻¹ s⁻¹; off-rate ratio against ALK3-Fc homodimer [26]: ~10 fold

From patent publication US20190225669A1 (ACCELERON PHARMA, published 2019)
